Results from the DeepSol protein solubility set.

Test: soluble on expression in E. coli; label from the status in PepcDB or PDB records
For “MAHHHHHHMLLGSFADFSVNGASTVDMPLAPSLEYVARMLRELPSVLHAEQWPTQFVCDSNAPLSGSGTELRNAEAITSSSSSVLERTLLGISPLSGTDAAVSQFLERLGGATTSLALRSLFDLCHADVWNLLGVAATSPISRLAALEKLAAAANGSASAPGPCRPVLDAETLEFKDILVWAWNRQYGCVGLRRLFFEMQVLFYRYAMNAQATSKQSRAGNGATLRDVCELWAVWRLSLQKWSAAFLAKLGTHEQTADVLDASTLRADACDLMRQHAIAVSGLAEVQRMALRVITKLQTVDAKGWFAVPAFDLVNVDFTSVRYWISSPVFARKSKREAYRSLCRTLERMVDSCVQKYGPTHAFSDVITTVRQQLVDVARAEGLL”, the “soluble on expression in E. coli” value was “not soluble”. In the case of “MAHHHHHHMLRFTHRALARKAAVKAGSRTSAAAGATAALHAAPAAPQNAVSIPPIPGVRSVRAFRTQKMEALQPQPAAATAGRKAFAAKGSKHVKAALKSRPSKKVKLPKKAAAPSRAQQAQQVKHAKQLKAPKSAAKEISKKAKTAKARK”, the “soluble on expression in E. coli” value was “soluble”. For “MAHHHHHHMLRHLPPPRAHPSPAFCHTHARMHLLQAPPSPHPHPTRTPLQTLCVILPPAMQVELSFIFPHALKELPVSFFVPLSSQRPRTVANLFFMCSGQLPLPAELLSALHLTEAEVAYATPAAAKAAGLLPLSDSAVVRIDKASVMEIGSSTTKSIFGGFISDERVTLPAGTAARGQSIAATMSSLKAGTLLYGNLGMPNTQASRYYILLEPVTTPEQRHEFAGFAPLGMVTGGLAELKRAASQTAVQPRTLVPKKKVVVSGCRMQLDYTYLSSSTEASASVSLGGLCDGTGQDAGKQRPTEPHERVAGRVRRRDDDGDEAKQADPRRALDGDGNTTDPGAAPLHSSGFFKISARFPKAAVAASGAGPSLKRRRAEAFVVGDDGVPTLRTTAIAPGEQVGGDGTAEPFEFFKAQQDAFMNDIEGIKDAQLQRFNRKARRIMKSRRAWASSSSSGRHANSQQHSSSSGTHVTGSGALSKTGAKKTKPKRY”, the “soluble on expression in E. coli” value was “not soluble”. For “MAHHHHHHMLRRTQRWLLLNVSGESPSFRSKPVRNLQMDVQMSPYKEQFKDYWSTPVPWADREYGEKPKLGAPIPTRRAATAIVVGKNKHVAVDKVERGEDNDYKVLMMFREGKNRFVRDQFIFPSFPISLEDSSEDWEKILRRRGVKTAWNDLHHRLCAMRALFAQMNILLVPKEGGGLVEVEGPPGPKKWHLLVHSQPKAMKNLVDVLELPMETCLSQLLPFRCITTPTTETFRFDNLVYLVPFEKIPDVRFTISTVGEKLVWVSPMEAMARFNAGIMNMPTPNIIAISELNNECPIFADVTKRKPHDDYRSILPELYRHSQTKVATVLLPGDLMHPNTTEEDKAERYIRRFVYEKDYPFGIRAVFEERPATTEEMNEPLIQEAPKLLEEANEMDMVYADTPYPKREKQPGEIGRTRFPVPSYSFQEGAENEEGVIPVRNRNIESVGDLYSQTN”, the “soluble on expression in E. coli” value was “not soluble”. In the case of “MAHHHHHHMLRRVIVGGVCRRASPSIAGRMVAARYAATIPTSTVASTTMSSSPTSRDDASTRAVVSEVPNLSFLASKTVLAETVEQTIEVCEALLNEIPKVKGAKEKHDLIDSTSNVLCLLLDPCEFVRQIHPDEEYKKHAAYAFQKGYEYMSKVNSRRDLYDVIVELDSPEGRKQLDDEEIKNVVQLKRDMESNGIHLSDALREKVTEMNIEKEDLAMRFLTEQGAKNPFATLRYLLRCRYELAKLLGFESYAEQQLRGTMLGNQQSVWHFLCGIAHKYRSAAEKELNLIRQNVGEVRNRQNITDDTRARVAHSLRRDAEPAKAEEYFSVANCIRGIQCLCSEVFGLRLEEVPFEREEVFNPDAKKFYVYDENRAFLGIIVLDMYASDMKYCQAGHLTLQLGCKPHQEALARVGLKLPERQYPVVVLTCNVGALTPAQRLPNGRFDDESTLMHPSEVTTVFHEFGHAMHTIFGQTKVQNLAGTRSSIDFVETFSQLFEHFLTSHEFLRLWAHRINTREPISFDIVMKRNAAADMFKHLDMLDQVVLSAVDQTLHGPQPYTVYFPHGQNGHLGKRTLGDSSDYGRGTYNLAKILIDVCTPLSIVTPTESGVLGTLSFEHLSGYPAGYYGYLYSLSVARRIWSKKFEKDPLNRAAGKELVQEVMRHGAACNPVEVIEKYLGDNLDEIDIWA”, the “soluble on expression in E. coli” value was “not soluble”. With “MAHHHHHHMLRYTPMWRCSAAAMQTLSAWLTDLAEESMAVPSATAADLQTRQNDGQGPTRKTPAQLWRELEDAATHANALRETDTLFSILQCLLLKQQYPTDVHAWARLAKQLLPYSGIEQKSVLHYPGRSDASYRRDGHPGGSSLANLSSSSDPVLTDADGGFGDDGASRRGGGGARRGGEYAVPYSLYPSRETLLLSGGVVPLSARVPCGDGRAISLFVRGFTRFVEGQLGVQPHTQLTSELLQVVKDVSGAVTEALAVNADSLQLELLLPALLDYMELLHVLDLRTATVAACGPLATEEERRDAAGATVRDDEPNGHGRSSPPRPSKPTRFLQNMVHDLAQNAMAGAARGARVVLYYLNECFAAVVEAYQADAAATFTDKMYWAQQRYLLTLTRACMWAISQHYTSATTAALSAASGSVASSPSPHVQGLRPTVATADLVATAPMNAHIQALYDHIDVLFQRNTHADNPLHLTDEEVAQLKEIHTAALLRALRIEEAAPDAYLRRALEVVDRVPASMAIEGELIAGKVRLLELDSDTVDEEGRAAIYDDLLTSLRSLVEMRPRFLRHNGAHHAAGGGAAAAASASTPADGGGGGGEEDEGDGEQLRLDAATQAILQRAHFDVITAFCAAHKEEWSNEAYNILVAHKYHGVKITNDLIRPVLEVFSRRGDCRVFSLVDLCVLYSNEPIDMHTIALLFRTCAAAGDHHRARTFLQLVNEIIHGFLVKCPASVKESLQELKLLDPPPRHLFVSTEDDLVQSALGEQQRTVRRLPTGS” the “soluble on expression in E. coli” value was “not soluble”. In the case of “MAHHHHHHMLSSAAPKRYKFDQRGNLTEVNFLACKSVVPPRTYVHSKNSLTCSTSVIPELHQTAHHCKGRSGANGTSGTNGKSGSTSKMAMSQENIFEAEAISTNAYAHGGGPSSLHSMNMVHSVSSVGSGGNDPSQYVPNQCGNMNMMGTGLSGHEMNNNAPLLFVDGAPYCADDAGQGIDPGVVAVSNALFAYNSAFQSIPIKTSPNVFRRRTKGEGNSEWCNAFVTRVDPCECGDPDEQFKPYEVTKYYDDGQVKTVFNFDQDSAPQEQLM”, the “soluble on expression in E. coli” value was “soluble”. With “MAHHHHHHMLSTACRAPVRGRAYCGCNRGLVSFSFYSTFAGDRRGAGGDETSGANSGGSGDSGETPKASKATVEERRRMAKSWENAFFGRVHYEPGMHDRYQAALDAEVEEHATLDEKDRCDRLPNWPDDEETPLHEFLQLSDAAKKRYIVRRLTMGERRINYAPYYGSLLMMQHLNLGELMISDAEHLVRESGWMTECVASKIEAVRECASKIKFEYDLD” the “soluble on expression in E. coli” value was “not soluble”. With “MAHHHHHHMLYHYDILKYNSNHEYNNCSYFKNTFVHFFDYIYNIKMMKEYNDLKAKICINKEFNILFNILNKMNYSFAYRDKKLIKMNDCLYHTYHIIGIKKISSIGYIFNFKNELNDNFSKVLKTKISNILSIEDIYFLFNRFFYFLLMYIRKFCCFSNKKDTNIPQNEAETFVNSVCNCKQDNCCYKIKTIVLINNIQ” the “soluble on expression in E. coli” value was “not soluble”. With “MAHHHHHHMNEPSSGETNLQGGEDDVSAKGRSYGGAGGEKDAESNMNPSDNNTSSAVEDNHENSAQKEGADELGEDALNEMFDDFLKDIENISSNMENQQEGKKLNKGDAESEIARLLANKNSSPFEIFGIHEDVDMEKIKSKYRRLSVLIHPDKCKIEKASEAFHILNKAYEELKKDDIKEQYKSVYETAKKNIIKKLNLKKIRNELNEYLNKNEEEYEITKEVQLLINEECENLLKVQKEKMEYAQKCKLANLQYAKEKEEEKMKEELKKEEERKLWIEGREERVNNWKNYKKDNLKTEKEFHIYKNVGKKKEERTEEEKEKLKRISTTNPMEK” the “soluble on expression in E. coli” value was “soluble”. With “MAHHHHHHMNESSIYIYNLTRNVSINHLKEIFMNFGTLKDVQYVTYVEESMFHEKGDGKDGDKKEDNDDKEEDDDKEEDNNKEEDNDKEEDNDKEEDNDNNDDNNDDNNDDNNDDGDDNDDNHICVHIKYENSKEAQAAKEFMDGGQIDGKIISVKYKINHKYIKTYTKKKKEKKKKN” the “soluble on expression in E. coli” value was “not soluble”. In the case of “MAHHHHHHMNIPNPRVFLDIAIGGRNAGRMIFELFMDKLPITCENFRCLCTGETGLGYYLKPRWYKNSPIHRIVTDFMFQGGDFNFGNGYGGESIYGQYFRNEKFIYKHSKRGILSMCQTRIKHTNNSQFFVTFKSCPWLDKRHVVLGHLEYGFDTLSFIEEQGTLIGKPKKQVFIYNCGVIPLDKIKYKSADNSDDDYIIPDIEKPLLEKDISINENSDFNELRNMYKYNKHF”, the “soluble on expression in E. coli” value was “not soluble”. In the case of “MAHHHHHHMNKEHILFDSFPLTFLSDEVDCSNFEDEQERTYRERIAQMTEELKSLRMEITEKHSIRSMLEEKVAMLQNEEQTKQNNLKYVLNFCDKQMYERELGNFHNHLEQLRKQIQNSNCKIKLLIEKEFKVRKQLQLRYMKLYDLLNERVRYILGDYVKHRKCACAIFAYRQEGQR”, the “soluble on expression in E. coli” value was “not soluble”. In the case of “MAHHHHHHMNNSVTRKIEKQILEALKDKENDIDKEIRKYEILERKVYDENDEELEFIKNKRLEELKNKHKEKLTLLKKGHGTYKEVLSEKEFFEICKSSKNVCCHFYRNTTWRCQYMDKKLIDLSSKYWNINFIKINAEKSPFLCERLKIWCIPTVMLIQNGKTEHSIVGFDELGGDNFSEQTLVNVLRKWRLIETKENDD”, the “soluble on expression in E. coli” value was “not soluble”. In the case of “MAHHHHHHMNVAKREFIRGMMAHYRASLPPPEHSVVIHELQKRVLDIGMLAVNKAHVELFGSHVSGFCTPHSDADISLTYRNFSPWLQGMERVDEQNNKRMTRFGKEASAMGMEDVRYIRARIPVVQFTDGVTGIHCDVSIGNIGGVENSKILCAIRQVFPDFYGAYIHLVKAWGKAREVIAPERSTFNSFTVTTMALMVLQELGLLPVFSKPTGEFGELTVADAEMLLQEFKLPPIYDSLHDDDEKLGEAVFFCLQRFAEYYAKYDFSAGTVSLIHPRRHRTVYERVVRRHLELLGSRKRLEWEKHIAEHKEDGPLDENDFSASMQNETTQRPSNSPYVVEDFVNYVNCGRRVQASRVRHIQQEFNRLREMLIDKESELKFDEVFRESDTVPRFQGFEGVGTRDHRVKTFRPQ”, the “soluble on expression in E. coli” value was “not soluble”. With “MAHHHHHHMPSRRFNARRGMIAARRGFFTATSPCRQSRLVPFHELFAPLSSSSLPSSPRRFPVHSVCVDPPLGTLGEPSRSQGAGAEDGSPLSWLRENLQLLEDGRKSLNERRASMPEGSPQWPRYMFPSHCCEYIYDPSNDSKLAFVTSDNYCHLCHEPVEVAIQHCAWWDHVTRLAAIRLIAIYPRRWSPVAVLREANEVLPTAVMVSPRPHPFLSFSEAVDTDDVSLMDMSSCYVFEREAVVRRAELAAILRVLCTAKDADSCDDAEQRISSIIPVLRESLFLSANGTPAASSGERTFRAYISRQISVFLPPMAPEPTTRIQQRCWGRKNLEIMFDLLGVASLQRIAGAPVEAVTKNEKAAVLRQIIYELATVLSEGDAEFAETSCAKINGTSSVDAEVQTRLLAEMALQRLAHELIHLHTMLLMDQAYETYVKLGYPSEGMLEKSGFC” the “soluble on expression in E. coli” value was “not soluble”. In the case of “MAHHHHHHMPTTSMQAECDKIRSSGNECRRKFSGGNLLVVATDMDGTILDPKHRLTERTKDTLYELSTRGVHIIFATGRHHSCVHATRRDLLEHYKRRSTARGVPDSPTTGYDGFYIISSNGARVHNPNGDLIFLRDLDSDVVRVLYERFGIRDHGDDPRKVISVSAYQTEKWWINRTIMSDEESLAMFGVVPELHPDLKEFPTTGVGKVCFRCYDRDILHQYEAEIKEIFHGRATAVMSSEICLDVMAAEVSKAAALREIGRILNFDPEREAIAFGDSMNDGDMLCSVAKGCIMDNGQSRLKESLPHLEVVGSSSEDGVARKLQEVFQIFHE”, the “soluble on expression in E. coli” value was “soluble”. In the case of “MAHHHHHHMQLPRKRGTQRRRAHRRNWRDCTSLCTMRGGAMRWNFRTAWSERKQGTGMGVHEGKPEQSWTYKKADDAIKKNDAVQQFGAAPPVLMVLASDKGWPYSWNTIQDLPKDFFVNCEVDRAWQIVKGDLTAWFSPHGGTDFTPKRRVLIGTPGIGKSVAAGSYLLY”, the “soluble on expression in E. coli” value was “not soluble”. With “MAHHHHHHMQMNSYAGGYTTHNRSYAAMVPPPMPMPPGWEMAYTPNGEIYYIDHNTRTTHWQLPAEYTMQQPVCSYRGPQRQRRGIDRSKAKTKMCMNIENGGTCSYGANCAFAHSSEELSTHPHFNSAPDAGYSAK” the “soluble on expression in E. coli” value was “not soluble”.
